Assay results: PMC7954794, “Protein context shapes the specificity of SH3 domain-mediated interactions in vivo” (Nature Communications, 2021)

Test system: Sla1 PPIs
Assay: DHFR-PCA of Sla1 SH3-swapped, -shuffled or -deleted baits (Fig. 2E, 4B, 4D, S5A)
Assay type: cell-based, Saccharomyces cerevisiae
From the text: The stuffing of YSC84 SH3 rendered the strain sterile and was therefore not used for this study as the assays require crosses. For genes containing two SH3s (BZZ1 and BEM1), a combination of this first stuffer with a second one ([…]) coding for a highly similar linker ([…]) was used, which allowed targeting each SH3 position independently. The two N-terminal domains of SLA1, which are separated by six nucleotides, were stuffed by a single stuffer. Cells containing pCAS were selected via the G418 resistance cassette from the plasmid on YPD plates (YPD + NAT 100 μg/ml (DHFR F[1,2] selection) + G418 200 µg/mL (Bioshop Canada)). Colonies were randomly selected and grown in YPD media without G418 to allow plasmid loss. The correct insertion of the stuffer was validated by PCR and Sanger sequencing. The SH3-swapped, -shuffled, and -mutated strains were constructed following a second CRISPR–Cas9 editing step with the same procedures. The stuffer sequences were targeted by specific gRNAs (one gRNA per stuffer) and replaced by PCR amplified specific SH3 (with 40 bp homology arms) or libraries of mutated SH3 domains for Deep Mutational Scanning (DMS) with 78 bp flanking homology regions. Validation of the SH3 domain insertions was done as we previously described except for DMS libraries (see below).
The overall DHFR-PCA pipeline is based on Tarassov et al.[43] and the procedures have also been published as a visualized protocol. The screens were performed with robotically manipulated pin tools (BM5-SC1, S&P Robotics Inc.). First, the preys were cherry-picked from 96-well plates to omnitrays in a 384 format on YPD + HPH solid media. Plates were then combined into the 1536 format on YPD + HPH. The array was constituted of 575 preys previously shown to interact physically with at least one SH3-containing protein as reported in BioGRID V3.4.16 along with 40 negative controls. The prey array comprised a border of control strains of two rows and two columns corresponding to the PPI between LSM8-DHFR F[1,2] and CDC39-DHFR F[3]. This double border was used to remove border effects. Preys are present in duplicate at a randomized position in the 1536 array (except for YAL041W which is present four times per array). Baits were crossed with two prey plates, resulting in four independent bait–prey tests for each PPI. Baits were grown in liquid YPD + NAT and then transferred on solid YPD + NAT omnitrays. They were then replicated on YPD + NAT omnitrays in 1536 array format. Mating of DHFR F[1,2] baits with DHFR F[3] preys was done on YPD followed by incubation at 30 °C for 48 h. Two diploid selection steps were performed by replicating the plates on YPD + NAT + HPH and incubating them for 48 h at 30 °C. Pictures were taken at the end of the second diploid selection for quality control. All images were acquired with a EOS Rebel T5i camera (Canon). Finally, the diploid cells were replicated on omnitrays containing solid PCA selection media and incubated for 4 days as a first selection step in a spImager custom robotic platform (S&P Robotics Inc.). Cells were replicated for a second PCA selection step and incubated in the same manner. The last time point of the second PCA selection step was used for the data analysis as in previous studies using this method.
A separate DHFR-PCA screen was performed for the Sla1 SH3 shuffling experiment, with the same analysis as previously described. Three plates had no detectable level of background, which correspond to the second plate of the three Sla1 SH3 WT re-insertion controls. They were attributed the average of the background of the three first plates of the same baits. The threshold was also determined based on the distribution of the PCA scores of all PPIs and corresponds to the top 2.75% of all colonies detected in this experiment. […] Almost all true PPIs are from four replicates (96.2%). […]

B1: WT¦WT¦WT (protein, UniProt P32790 1-1244, looked up)
Actin cytoskeleton-regulatory …: MTVFLGIYRAVYAYEPQTPEELAIQEDDLLYLLQKSDIDDWWTVKKRVIGSDSEEPVGLVPSTYIEEAPVLKKVRAIYDYEQVQNADEELTFHENDVFDVFDDKDADWLLVKSTVSNEFGFIPGNYVEPENGSTSKQEQAPAAAEAPAATPAAAPASAAVLPTNFLPPPQHNDRARMMQSKEDQAPDEDEEGPPPAMPARPTATTETTDATAAAVRSRTRLSYSDNDNDDEEDDYYYNSNSNNVGNHEYNTEYHSWNVTEIEGRKKKKAKLSIGNNKINFIPQKGTPHEWSIDKLVSYDNEKKHMFLEFVDPYRSLELHTGNTTTCEEIMNIIGEYKGASRDPGLREVEMASKSKKRGIVQYDFMAESQDELTIKSGDKVYILDDKKSKDWWMCQLVDSGKSGLVPAQFIEPVRDKKHTESTASGIIKSIKKNFTKSPSRSRSRSRSKSNANASWKDDELQNDVVGSAAGKRSRKSSLSSHKKNSSATKDFPNPKKSRLWVDRSGTFKVDAEFIGCAKGKIHLHKANGVKIAVAADKLSNEDLAYVEKITGFSLEKFKANDGSSSRGTDSRDSERERRRRLKEQEEKERDRRLKERELYELKKARELLDEERSRLQEKELPPIKPPRPTSTTSVPNTTSVPPAESSNNNNSSNKYDWFEFFLNCGVDVSNCQRYTINFDREQLTEDMMPDINNSMLRTLGLREGDIVRVMKHLDKKFGRENIASIPTNATGNMFSQPDGSLNVATSPETSLPQQLLPQTTSPAQTAPSTSAETDDAWTVKPASKSESNLLSKKSEFTGSMQDLLDLQPLEPKKAAASTPEPNLKDLEPVKTGGTTVPAAPVSSAPVSSAPAPLDPFKTGGNNILPLSTGFVMMPMITGGDMLPMQRTGGFVVPQTTFGMQSQVTGGILPVQKTGNGLIPISNTGGAMMPQTTFGAAATVLPLQKTGGGLIPIATTGGAQFPQTSFNVQGQQQLPTGSILPVQKTANGLISANTGVSMPTVQRTGGTMIPQTSFGVSQQLTGGAMMTQPQNTGSAMMPQTSFNAVPQITGGAMMPQTSFNALPQVTGGAMMPLQRTGGALNTFNTGGAMIPQTSFSSQAQNTGGFRPQSQFGLTLQKTGGIAPLNQNQFTGGAMNTLSTGGVLQQQQPQTMNTFNTGGVMQELQMMTTFNTGGAMQQPQMMNTFNTDGIMQQPQMMNTFNTGGAMQQPQQQALQNQPTGFGFGNGPQQSRQANIFNATASNPFGF
For B1, the “Protein-protein interaction distance between Sla1 baits” value (distance to bait ABP1¦WT¦WT) was 8.25, the “Protein-protein interaction distance between Sla1 baits” value (distance to bait ABP1¦WT¦WT, listed as WT¦WT¦WT*) was 10.6959 and the “Protein-protein interaction distance between Sla1 baits” value (distance to bait D¦D¦D) was 16.1793. For the same molecule, the “Protein-protein interaction distance between Sla1 baits” value (distance to bait D¦D¦D, listed as WT¦WT¦WT*) was 19.5303, the “Protein-protein interaction distance between Sla1 baits” value (distance to bait D¦D¦SH3-1) was 16.1305 and the “Protein-protein interaction distance between Sla1 baits” value (distance to bait D¦D¦SH3-1, listed as WT¦WT¦WT*) was 19.4574. For the same molecule, the “Protein-protein interaction distance between Sla1 baits” value (distance to bait D¦D¦WT) was 16.2907, the “Protein-protein interaction distance between Sla1 baits” value (distance to bait D¦D¦WT, listed as WT¦WT¦WT*) was 19.6881 and the “Protein-protein interaction distance between Sla1 baits” value (distance to bait D¦WT¦D) was 11.2982. For the same molecule, the “Protein-protein interaction distance between Sla1 baits” value (distance to bait D¦WT¦D, listed as WT¦WT¦WT*) was 13.9439, the “Protein-protein interaction distance between Sla1 baits” value (distance to bait D¦WT¦SH3-1) was 14.8539 and the “Protein-protein interaction distance between Sla1 baits” value (distance to bait D¦WT¦SH3-1, listed as WT¦WT¦WT*) was 18.0045. The “Protein-protein interaction distance between Sla1 baits” value (distance to bait D¦WT¦SH3-2) was 16.1112, the “Protein-protein interaction distance between Sla1 baits” value (distance to bait D¦WT¦SH3-2, listed as WT¦WT¦WT*) was 19.4593 and the “Protein-protein interaction distance between Sla1 baits” value (distance to bait D¦WT¦WT) was 11.2206. The “Protein-protein interaction distance between Sla1 baits” value (distance to bait D¦WT¦WT, listed as WT¦WT¦WT*) was 13.8561, the “Protein-protein interaction distance between Sla1 baits” value (distance to bait SH3-2¦SH3-1¦WT) was 14.7068 and the “Protein-protein interaction distance between Sla1 baits” value (distance to bait SH3-2¦SH3-1¦WT, listed as WT¦WT¦WT*) was 17.8199. The “Protein-protein interaction distance between Sla1 baits” value (distance to bait SH3-2¦WT¦D) was 16.5686, the “Protein-protein interaction distance between Sla1 baits” value (distance to bait SH3-2¦WT¦D, listed as WT¦WT¦WT*) was 19.9645 and the “Protein-protein interaction distance between Sla1 baits” value (distance to bait SH3-2¦WT¦WT) was 10.6088. The “Protein-protein interaction distance between Sla1 baits” value (distance to bait SH3-2¦WT¦WT, listed as WT¦WT¦WT*) was 13.1093, the “Protein-protein interaction distance between Sla1 baits” value (distance to bait SH3-3¦SH3-1¦D) was 6.071 and the “Protein-protein interaction distance between Sla1 baits” value (distance to bait SH3-3¦SH3-1¦D, listed as WT¦WT¦WT*) was 7.132. The “Protein-protein interaction distance between Sla1 baits” value (distance to bait SH3-3¦SH3-1¦SH3-2) was 11.1253, the “Protein-protein interaction distance between Sla1 baits” value (distance to bait SH3-3¦SH3-1¦SH3-2, listed as WT¦WT¦WT*) was 13.2567 and the “Protein-protein interaction distance between Sla1 baits” value (distance to bait SH3-3¦WT¦D) was 6.23. The “Protein-protein interaction distance between Sla1 baits” value (distance to bait SH3-3¦WT¦D, listed as WT¦WT¦WT*) was 7.588, the “Protein-protein interaction distance between Sla1 baits” value (distance to bait SH3-3¦WT¦SH3-1) was 7.451 and the “Protein-protein interaction distance between Sla1 baits” value (distance to bait SH3-3¦WT¦SH3-1, listed as WT¦WT¦WT*) was 7.53. For the same molecule, the “Protein-protein interaction distance between Sla1 baits” value (distance to bait SH3-3¦WT¦WT) was 5.911, the “Protein-protein interaction distance between Sla1 baits” value (distance to bait SH3-3¦WT¦WT, listed as WT¦WT¦WT*) was 7.517 and the “Protein-protein interaction distance between Sla1 baits” value (distance to bait WT*¦WT¦WT) was 6.431. For the same molecule, the “Protein-protein interaction distance between Sla1 baits” value (distance to bait WT*¦WT¦WT, listed as WT¦WT¦WT*) was 3.21, the “Protein-protein interaction distance between Sla1 baits” value (distance to bait WT¦ABP1¦WT) was 7.491 and the “Protein-protein interaction distance between Sla1 baits” value (distance to bait WT¦ABP1¦WT, listed as WT¦WT¦WT*) was 10.0527. For the same molecule, the “Protein-protein interaction distance between Sla1 baits” value (distance to bait WT¦D¦D) was 10.9978, the “Protein-protein interaction distance between Sla1 baits” value (distance to bait WT¦D¦D, listed as WT¦WT¦WT*) was 13.667 and the “Protein-protein interaction distance between Sla1 baits” value (distance to bait WT¦D¦SH3-2) was 12.0771. For the same molecule, the “Protein-protein interaction distance between Sla1 baits” value (distance to bait WT¦D¦SH3-2, listed as WT¦WT¦WT*) was 14.877, the “Protein-protein interaction distance between Sla1 baits” value (distance to bait WT¦D¦WT) was 11.0221 and the “Protein-protein interaction distance between Sla1 baits” value (distance to bait WT¦D¦WT, listed as WT¦WT¦WT*) was 13.7143. The “Protein-protein interaction distance between Sla1 baits” value (distance to bait WT¦SH3-1¦D) was 6.357, the “Protein-protein interaction distance between Sla1 baits” value (distance to bait WT¦SH3-1¦D, listed as WT¦WT¦WT*) was 7.675 and the “Protein-protein interaction distance between Sla1 baits” value (distance to bait WT¦SH3-1¦WT) was 5.709. For the same molecule, the “Protein-protein interaction distance between Sla1 baits” value (distance to bait WT¦SH3-1¦WT, listed as WT¦WT¦WT*) was 7.171, the “Protein-protein interaction distance between Sla1 baits” value (distance to bait WT¦SH3-3¦D) was 9.961 and the “Protein-protein interaction distance between Sla1 baits” value (distance to bait WT¦SH3-3¦D, listed as WT¦WT¦WT*) was 12.4074. For the same molecule, the “Protein-protein interaction distance between Sla1 baits” value (distance to bait WT¦SH3-3¦SH3-2) was 12.7354, the “Protein-protein interaction distance between Sla1 baits” value (distance to bait WT¦SH3-3¦SH3-2, listed as WT¦WT¦WT*) was 15.4687 and the “Protein-protein interaction distance between Sla1 baits” value (distance to bait WT¦SH3-3¦WT) was 10.0693. For the same molecule, the “Protein-protein interaction distance between Sla1 baits” value (distance to bait WT¦SH3-3¦WT, listed as WT¦WT¦WT*) was 12.5958, the “Protein-protein interaction distance between Sla1 baits” value (distance to bait WT¦WT*¦WT) was 6.129 and the “Protein-protein interaction distance between Sla1 baits” value (distance to bait WT¦WT*¦WT, listed as WT¦WT¦WT*) was 3.181. The “Protein-protein interaction distance between Sla1 baits” value (distance to bait WT¦WT¦ABP1) was 9, the “Protein-protein interaction distance between Sla1 baits” value (distance to bait WT¦WT¦ABP1, listed as WT¦WT¦WT*) was 10.6328 and the “Protein-protein interaction distance between Sla1 baits” value (distance to bait WT¦WT¦D) was 5.067. For the same molecule, the “Protein-protein interaction distance between Sla1 baits” value (distance to bait WT¦WT¦D, listed as WT¦WT¦WT*) was 7.2651, the “Protein-protein interaction distance between Sla1 baits” value (distance to bait WT¦WT¦SH3-1) was 4.945 and the “Protein-protein interaction distance between Sla1 baits” value (distance to bait WT¦WT¦SH3-1, listed as WT¦WT¦WT*) was 5.794. For the same molecule, the “Protein-protein interaction distance between Sla1 baits” value (distance to bait WT¦WT¦SH3-2) was 5.746, the “Protein-protein interaction distance between Sla1 baits” value (distance to bait WT¦WT¦SH3-2, listed as WT¦WT¦WT*) was 6.816 and the “Protein-protein interaction distance between Sla1 baits” value (distance to bait WT¦WT¦WT) was 0. For the same molecule, the “Protein-protein interaction distance between Sla1 baits” value (distance to bait WT¦WT¦WT*) was 6.956, the “Protein-protein interaction distance between Sla1 baits” value (distance to bait WT¦WT¦WT*, listed as WT¦WT¦WT*) was 0 and the “Protein-protein interaction distance between Sla1 baits” value (distance to bait WT¦WT¦WT, listed as WT¦WT¦WT*) was 6.956.
